{
  "source": "paper doi:10.1101/2024.11.10.622895",
  "molecular_target": "tail tube protein (TTP) of Bacillus subtilis bacteriophage SPR (Bacillus subtilis bacteriophage SPR)",
  "experiment": "cryo-EM structure",
  "note": "“And” between values parts separate entries of the source, which are not always exact repeats. Identical values can stand only once.",
  "data": [
    {"substance": "tail tube protein (TTP) of Bacillus subtilis bacteriophage SPR (natural protein)", "values": [
      {"measurement": "stoichiometry N", "result": "5 and 6"}
    ]}
  ]
}
